Data on one molecule can be found in PMC2714593, “Insights into the role of Val45 and Gln182 of Escherichia coli MutY in DNA substrate binding and specificity”.

Usually Kd stands for the equilibrium constant for the complex coming apart.

The data set deals with T1, MutY (EcMutY) wild type (Escherichia coli, UniProt P17802 1-350).
T1 sequence: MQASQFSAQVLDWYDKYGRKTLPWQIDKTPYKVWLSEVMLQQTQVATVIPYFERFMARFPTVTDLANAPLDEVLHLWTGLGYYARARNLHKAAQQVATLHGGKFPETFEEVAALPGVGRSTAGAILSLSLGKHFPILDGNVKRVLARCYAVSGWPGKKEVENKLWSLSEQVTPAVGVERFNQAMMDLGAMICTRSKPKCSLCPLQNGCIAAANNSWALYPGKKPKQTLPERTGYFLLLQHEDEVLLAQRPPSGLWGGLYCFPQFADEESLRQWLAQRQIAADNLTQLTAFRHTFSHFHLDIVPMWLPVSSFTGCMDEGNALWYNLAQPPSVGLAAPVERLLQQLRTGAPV
Kind of data set: EMSA; 20 mM Tris-HCl pH 7.6, 80 mM NaCl, 1 mM DTT, 1 mM EDTA, 2.9% glycerol, 20 ng poly dI/dC per 20 ul, 0.09 nM labeled DNA, 30 min at 30 C; 4% PAGE in TBE. The settings on record: protein: recombinant; label: 5'-32P on X strand; blunt; T/G mismatch at strand 1 position 22.

B1: T/G 44-mer (dsDNA)
DNA 1: AATTGGGCTCCTCGAGGAATTTGCCTTCTGCAGGCATGCCCCGG
DNA 2: CCGGGGCATGCCTGCAGAAGGCGAATTCCTCGAGGAGCCCAATT
In the case of B1, the Kd amounted to 14 ± 1 nM.
